Measurements published in paper PMC7566557 (Brain Communications, 2020).
Read-outs that look alike come from different tables or passages of the source. One block for each molecule: values may come before it.

What was measured:
Myc-(C32G)CAP2 = Myc-(C32G)CAP2 (UniProt P40123); experiment: proximity ligation
[1] = biological target: cofilin (endogenous, primary hippocampal neurons) (rat (endogenous in primary hippocampal neurons)) (UniProt P45592); experiment: proximity ligation
[2] = biological target: the molecule itself; experiment: non-reducing SDS-PAGE with Western blot
[3] = biological target: the molecule itself; experiment: non-reducing SDS-PAGE with Western blot; remark: listed apart in the source

Sequence of cofilin (endogenous, primary hippocampal neurons) (rat (endogenous in primary hippocampal neurons)) (P45592 whole entry): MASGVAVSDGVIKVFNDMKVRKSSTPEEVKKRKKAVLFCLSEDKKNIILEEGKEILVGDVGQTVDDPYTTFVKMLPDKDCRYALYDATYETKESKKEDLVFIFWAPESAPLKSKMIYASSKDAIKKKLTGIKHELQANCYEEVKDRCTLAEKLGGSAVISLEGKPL

PLA clusters/μm (Myc-(C32G)CAP2): 0.566 clusters/μm
PLA clusters/μm (cLTP) (Myc-(C32G)CAP2): 0.461 clusters/μm
Molecule: EGFP-CAP2 (from UniProt Q9CYT6 1-476) (natural protein)

PLA clusters/μm [1]: 0.0144 clusters/μm
PLA clusters/μm (cLTP) [1]: 0.0315 clusters/μm
Molecule: Myc-(C32G)CAP2 (from UniProt P40123 1-477) (natural protein)

PLA clusters/μm [1]: 0.032 clusters/μm
PLA clusters/μm (CTRL) [1]: 0.0317 clusters/μm
PLA clusters/μm (cLTP) [1]: 0.0984 clusters/μm
Molecule: Myc-CAP2 (from UniProt Q9CYT6 1-476) (natural protein)

B1: CAP2 (endogenous, primary hippocampal neurons) (natural protein)
chain: MADMLGLMQRLEFAVSRLERLSSGLHEPPGGCGEVNSLSRGIVAPSVEAFDKLINSMVAEFLKNSRVLAGDVETHAEMVHGAFQAQRAFLLMVSQHQQPQENEVAVLLKPISEKIQEIQTFRERNRGSDMFNHLSAVSESIAALGWIAVSPKPGPYVKEMNDAATFYTNRVLRDYKHSDLRHVDWVRSYLKIWSELQAYIKEHHTTGLTWSKTGPVASTASAFSILSSGPGLPPPPPPPPPPGPPPPFENEGGKEEPSPSRSALFAQLNQGEAITKGLRHVTDDKKIYKNPSLRAQGQIRSPTKTRTPSPTSSKSNSPQKHAPVLELEGKKWRVEYQEDRNDLVISETELKQVAYIFKCDKSTLQIKGKVNSITVDNCKKFGLVFDHVVGIVEVINSKDIQIQVMGRVPTISINKTEGCHLYLSKDALDCEIVSAKSSEMNVLVPQGDDYREFPIPEQFKTIWDGSKLITEPAEIMA
stoichiometry N [2]: 2

B2: CAP2 (endogenous, rat hippocampus) (natural protein)
chain: MADMLGLMQRLEFAVSRLERLSSGLHEPPGGCGEVNSLSRGIVAPSVEAFDKLINSMVAEFLKNSRVLAGDVETHAEMVHGAFQAQRAFLLMVSQHQQPQENEVAVLLKPISEKIQEIQTFRERNRGSDMFNHLSAVSESIAALGWIAVSPKPGPYVKEMNDAATFYTNRVLRDYKHSDLRHVDWVRSYLKIWSELQAYIKEHHTTGLTWSKTGPVASTASAFSILSSGPGLPPPPPPPPPPGPPPPFENEGGKEEPSPSRSALFAQLNQGEAITKGLRHVTDDKKIYKNPSLRAQGQIRSPTKTRTPSPTSSKSNSPQKHAPVLELEGKKWRVEYQEDRNDLVISETELKQVAYIFKCDKSTLQIKGKVNSITVDNCKKFGLVFDHVVGIVEVINSKDIQIQVMGRVPTISINKTEGCHLYLSKDALDCEIVSAKSSEMNVLVPQGDDYREFPIPEQFKTIWDGSKLITEPAEIMA
stoichiometry N [2]: 2

B3: CAP2 (endogenous, mouse hippocampus) (natural protein)
chain: MTDMAGLMERLERAVIRLEQLSAGLDGPPRGCGEVNGVNGGVAPSVEAFDKLINSMVAEFLKNSRVLAGDVETHAEMVHGAFQAQRAFLLMVSQYQQPQENEVAVLLKPISEKIQEIQTFRERNRGSNMFNHLSAVSESIAALGWIAVSPKPGPYVKEMNDAATFYTNRVLKDYKHSDLRHVDWVRSYLNIWSELQAYIREHHTTGLTWSKTGPVASTASAFSILSSGPGLPPPPPPPPPPGPPPPFENEDKKEEPSPSRSALFAQLNQGEAITKGLRHVTDDKKTYKNPSLRAQGQIRSPTKTHTPSPTSPKSNSPQKHTPVLELEGKKWRVEYQEDRNDLVISETELKQVAYIFKCDKSTLQIKGKVNSITVDNCKKFGLVFDHVVGIVEVINSKDIQIQVMGRVPTISINKTEGCHLYLSEDALDCEIVSAKSSEMNVLVPQDDDYREFPIPEQFKTIWDGSKLVTEPAEIMA
stoichiometry N [2]: 2

B4: Myc-CAP2 (natural protein)
chain: MTDMAGLMERLERAVIRLEQLSAGLDGPPRGCGEVNGVNGGVAPSVEAFDKLINSMVAEFLKNSRVLAGDVETHAEMVHGAFQAQRAFLLMVSQYQQPQENEVAVLLKPISEKIQEIQTFRERNRGSNMFNHLSAVSESIAALGWIAVSPKPGPYVKEMNDAATFYTNRVLKDYKHSDLRHVDWVRSYLNIWSELQAYIREHHTTGLTWSKTGPVASTASAFSILSSGPGLPPPPPPPPPPGPPPPFENEDKKEEPSPSRSALFAQLNQGEAITKGLRHVTDDKKTYKNPSLRAQGQIRSPTKTHTPSPTSPKSNSPQKHTPVLELEGKKWRVEYQEDRNDLVISETELKQVAYIFKCDKSTLQIKGKVNSITVDNCKKFGLVFDHVVGIVEVINSKDIQIQVMGRVPTISINKTEGCHLYLSEDALDCEIVSAKSSEMNVLVPQDDDYREFPIPEQFKTIWDGSKLVTEPAEIMA
stoichiometry N [3]: 2

B5: CAP2 (endogenous, human hippocampus) (natural protein)
chain: MANMQGLVERLERAVSRLESLSAESHRPPGNCGEVNGVIAGVAPSVEAFDKLMDSMVAEFLKNSRILAGDVETHAEMVHSAFQAQRAFLLMASQYQQPHENDVAALLKPISEKIQEIQTFRERNRGSNMFNHLSAVSESIPALGWIAVSPKPGPYVKEMNDAATFYTNRVLKDYKHSDLRHVDWVKSYLNIWSELQAYIKEHHTTGLTWSKTGPVASTVSAFSVLSSGPGLPPPPPPLPPPGPPPLFENEGKKEESSPSRSALFAQLNQGEAITKGLRHVTDDQKTYKNPSLRAQGGQTQSPTKSHTPSPTSPKSYPSQKHAPVLELEGKKWRVEYQEDRNDLVISETELKQVAYIFKCEKSTIQIKGKVNSIIIDNCKKLGLVFDNVVGIVEVINSQDIQIQVMGRVPTISINKTEGCHIYLSEDALDCEIVSAKSSEMNILIPQDGDYREFPIPEQFKTAWDGSKLITEPAEIMA
stoichiometry N [2]: 2
